# Tested on: O=C(O)[C@H]1O[C@@H](Oc2ccc([N+](=O)[O-])cc2)[C@H](O)[C@@H](O)[C@@H]1O
# Experiment: purified protein, by the assay type
# Conditions: other: pNPG as substrate, optimal pH 5.0, 37 °C
substance,measurement,value
Bacteroides fragilis GUS (BfGUS) (Bacteroides fragilis NCTC 9343),Km,580 ± 90 µM
same,kcat,22 s⁻¹
same,kcat/Km,39000 M⁻¹ s⁻¹
